Test results: the supplement of paper PMC10567573

B1: KLHL12 (parent)
chain: LDYTADEDGVWYSVAPMNVRRGLA
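Also: lentivirally expressed fusions sorted by FACS into six bins by GFP to DsRed ratio, PSI derived from sequencing read proportions per bin multiplied by bin number.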

Variants of: B1
Experiment: protein stability index of a GFP-peptide fusion (GPS, HEK-293T) (PSI 1-6); higher = more stable
Settings: c terminus: a fixed tail appended
With T4K the protein stability index was 2.57.
T4C showed a protein stability index of 1.98.
Work on T4D yielded a protein stability index of 2.41.
Work on T4E yielded a protein stability index of 2.69.
For T4F, the protein stability index was 1.7.
T4N showed a protein stability index of 2.24.
T4G gave a protein stability index of 2.1.
With T4Y the protein stability index was 2.57.
In the case of T4V, the protein stability index is reported as 1.98.
T4H showed a protein stability index of 1.77.
Work on T4L yielded a protein stability index of 4.91.
Work on T4P yielded a protein stability index of 3.09.
Variant T4S has a protein stability index of 2.81.
In the case of T4M, the protein stability index is reported as 2.48.
T4Q gave a protein stability index of 2.45.
Work on T4A yielded a protein stability index of 2.24.
Variant T4W has a protein stability index of 1.74.
For T4R, the protein stability index was 1.51.
T4I gave a protein stability index of 2.12.
With D6Y the protein stability index was 1.51.
D6F gave a protein stability index of 2.98.
D6T gave a protein stability index of 1.91.
D6V showed a protein stability index of 1.99.
In the case of D6R, the protein stability index is reported as 2.47.
In the case of D6I, the protein stability index is reported as 1.4.
Variant D6H has a protein stability index of 1.85.
D6S showed a protein stability index of 1.91.
For D6M, the protein stability index was 2.18.
D6P showed a protein stability index of 2.46.
D6Q showed a protein stability index of 1.7.
D6C gave a protein stability index of 2.61.
In the case of D6W, the protein stability index is reported as 2.71.
D6A gave a protein stability index of 1.93.
Variant D6G has a protein stability index of 2.36.
D6L showed a protein stability index of 2.08.
For D6K, the protein stability index was 2.44.
D6E showed a protein stability index of 2.16.
In the case of D6N, the protein stability index is reported as 1.27.
In the case of V10L, the protein stability index is reported as 3.09.
Work on V10Q yielded a protein stability index of 2.99.
With V10S the protein stability index was 2.2.
With V10A the protein stability index was 3.22.
Variant V10D has a protein stability index of 3.36.
Variant V10C has a protein stability index of 2.44.
In the case of V10E, the protein stability index is reported as 3.37.
With V10H the protein stability index was 2.44.
Work on V10N yielded a protein stability index of 3.06.
In the case of V10W, the protein stability index is reported as 1.63.
For V10K, the protein stability index was 3.18.
For V10Y, the protein stability index was 2.44.
Variant V10G has a protein stability index of 3.38.
V10P showed a protein stability index of 2.47.
V10I gave a protein stability index of 1.84.
In the case of V10T, the protein stability index is reported as 2.82.
Work on V10R yielded a protein stability index of 2.7.
Variant V10M has a protein stability index of 2.32.
For V10F, the protein stability index was 1.86.
E7S gave a protein stability index of 1.8.
With E7Q the protein stability index was 2.43.
In the case of E7Y, the protein stability index is reported as 1.95.
E7V showed a protein stability index of 1.44.
For E7G, the protein stability index was 1.7.
For E7N, the protein stability index was 2.09.
E7W showed a protein stability index of 2.19.
Work on E7P yielded a protein stability index of 2.02.
With E7H the protein stability index was 1.89.
Variant E7I has a protein stability index of 2.43.
For E7R, the protein stability index was 2.77.
For E7K, the protein stability index was 2.01.
In the case of E7A, the protein stability index is reported as 1.28.
Variant E7F has a protein stability index of 2.55.
For E7T, the protein stability index was 1.64.
E7C showed a protein stability index of 1.65.
E7L gave a protein stability index of 2.79.
Work on E7D yielded a protein stability index of 1.46.
With E7M the protein stability index was 1.91.
D2Y gave a protein stability index of 2.43.
Variant A5I has a protein stability index of 2.99.
A5R showed a protein stability index of 2.15.
For A5F, the protein stability index was 1.37.
A5T showed a protein stability index of 1.94.
Variant A5Q has a protein stability index of 2.06.
Variant A5E has a protein stability index of 2.14.
A5M gave a protein stability index of 2.05.
In the case of A5S, the protein stability index is reported as 1.8.
For A5H, the protein stability index was 1.93.
In the case of A5N, the protein stability index is reported as 2.19.
For A5C, the protein stability index was 1.68.
With A5L the protein stability index was 1.29.
For A5G, the protein stability index was 2.08.
For A5K, the protein stability index was 2.35.
A5Y gave a protein stability index of 2.6.
A5P showed a protein stability index of 2.23.
With A5V the protein stability index was 2.02.
A5W showed a protein stability index of 2.46.
Work on A5D yielded a protein stability index of 2.76.
For Y3R, the protein stability index was 2.99.
For Y3L, the protein stability index was 2.22.
Y3Q gave a protein stability index of 3.69.
In the case of Y3M, the protein stability index is reported as 2.33.
Variant Y3S has a protein stability index of 3.61.
Variant Y3H has a protein stability index of 3.43.
In the case of Y3A, the protein stability index is reported as 3.65.
Y3D gave a protein stability index of 3.35.
Variant Y3P has a protein stability index of 3.6.
In the case of Y3N, the protein stability index is reported as 3.78.
Y3K showed a protein stability index of 3.58.
Y3E showed a protein stability index of 3.6.
For Y3F, the protein stability index was 2.29.
Variant Y3C has a protein stability index of 2.47.
For Y3W, the protein stability index was 1.94.
Y3T gave a protein stability index of 3.01.
Y3G gave a protein stability index of 3.22.
Variant Y3V has a protein stability index of 1.78.
Work on Y3I yielded a protein stability index of 1.85.
In the case of D8I, the protein stability index is reported as 1.96.
Variant D8R has a protein stability index of 1.56.
D8Q showed a protein stability index of 2.49.
D8A gave a protein stability index of 1.67.
Work on D8P yielded a protein stability index of 2.26.
Work on D8N yielded a protein stability index of 1.42.
In the case of D8G, the protein stability index is reported as 1.74.
With D8T the protein stability index was 1.48.
D8S gave a protein stability index of 2.69.
D8C showed a protein stability index of 2.81.
In the case of D8E, the protein stability index is reported as 2.79.
Work on D8Y yielded a protein stability index of 2.23.
In the case of D8M, the protein stability index is reported as 1.93.
For D8K, the protein stability index was 2.24.
With D8W the protein stability index was 2.1.
In the case of D8H, the protein stability index is reported as 1.82.
With D8L the protein stability index was 1.73.
In the case of D8V, the protein stability index is reported as 1.6.
Work on D8F yielded a protein stability index of 1.21.
In the case of W11L, the protein stability index is reported as 3.21.
In the case of W11H, the protein stability index is reported as 3.05.
With W11E the protein stability index was 4.55.
For W11N, the protein stability index was 3.97.
W11A showed a protein stability index of 3.86.
Work on W11Q yielded a protein stability index of 3.38.
For W11C, the protein stability index was 3.05.
With W11K the protein stability index was 3.18.
W11I gave a protein stability index of 2.61.
In the case of W11M, the protein stability index is reported as 2.72.
In the case of W11P, the protein stability index is reported as 3.56.
Work on W11F yielded a protein stability index of 2.85.
Variant W11D has a protein stability index of 4.35.
Work on W11G yielded a protein stability index of 3.69.
In the case of G9R, the protein stability index is reported as 1.75.
Variant G9A has a protein stability index of 2.17.
For G9H, the protein stability index was 2.2.
Work on G9M yielded a protein stability index of 2.26.
For G9L, the protein stability index was 1.61.
For G9I, the protein stability index was 1.88.
G9P showed a protein stability index of 2.75.
With G9Y the protein stability index was 2.37.
G9C showed a protein stability index of 1.47.
Variant G9F has a protein stability index of 1.99.
With G9N the protein stability index was 2.5.
G9K gave a protein stability index of 1.75.
Work on G9Q yielded a protein stability index of 2.21.
For G9S, the protein stability index was 2.03.
With G9W the protein stability index was 1.94.
For G9D, the protein stability index was 2.63.
G9E gave a protein stability index of 2.33.
With G9T the protein stability index was 2.15.
G9V showed a protein stability index of 1.82.
